In patent US20240336907A1, “NOVEL ENDO-ß-N-ACETYLGLUCOSAMINIDASE” (priority 2020, published 2024):

Tested on: (Fucα1,6)GlcNAc-mAb2
Test: Transglycosylation activity with sugar chain oxazoline [N3-PEG(3)]-MSG1(9)-Ox as donor
Format: biochemical
Details: donor [N3-PEG(3)]-MSG1(9)-Ox (8 eq.), enzyme 1.25 μg, 28° C., pH 7.5
Method: Transglycosylation activity was evaluated as follows. […] A sample was taken from each of the reaction solutions at 1, 2, 4, 6, and 24 hours after initiation of the reaction and analyzed for protein by a fully automated electrophoresis system as mentioned above. In the chromatogram obtained, an unreacted product and transglycosylated molecule, mAb2-(MSG1-N3)2 were confirmed as discrete peaks. The transglycosylation rate was calculated based on the peak-area ratio between the unreacted product and the transglycosylated molecule in accordance with the following expression.
Transglycosylation rate (%)=[[peak area of mAb2-(MSG1-N3)2-derived H chain]/{[peak area of (Fucα1,6)GlcNAc-mAb2-derived H chain]+[peak area of mAb2-(MSG1-N3)2-derived H chain]}]×100
Similarly, the transglycosylation rates of individual Endo-Si mutant enzymes at each time period for a reaction were calculated (Table 5).

Measured: Transglycosylation rate

B1: Endo-Si WT: endo-β-N-acetylglucosaminidase derived from Streptococcus iniae, amino acid positions 34 to 928 in SEQ ID NO: 2 (protein, listed as Streptococcus iniae)
chain: REELKMPNGLEQSIADVEAKIDALTYLSKNSKDEFKHSMYEIPSNREHKPVSPKQALQNAKKADAQAERLAKMTIPKKEELKALEGPLYGGYFRTWQDKTSDPTETNKVNSFGELPKEVDLAFVFHDYTKDYSLFWEELATKQVPKLNKQGTRVIRTIPWRFLSGADHSDISADKEKFPNTEAGNKALAKAIVDEYVYKYNLDGLDIDIERDSVPKVNDKEDPEALARTVEVFKEIGKLIGANGADKSRLLIMDTTYTAEENPLIKETAQYLNLLLVQVYGFSGENGNYLHHKNILDETSSMEGRWQGYSKYIRPEQYMVGFSFYEEKDFNNRWKDINEEDPSDPHIGEKIQGTRAERYAKWQPKTGGLKGGLFSYAIDRDGVAQPKQKTEHPELDKIVKSEYKVSKALKKLMMTDDQYQPIDQSDFPDKALRESIIKQVGTRRGDLERFKGTLRLDNPEIKDLTGLNKLKRVAKLELINLPKITKIDKDDLPQNLKPLTDNQKSNLEIKGTYDDSKLYKDIPAFDLVISGLSGLESLDISGHQRDTLSGIDASTLPSLKAINISDNHFDLAQGTENRHILDTILATLAKNGASTASFDKQKPKGLYPESYSTAPLHLQVGQGKINVIDDLIFGTRTNQNTLINTENDFEAYKEQTIQGKPFIAPDYLYDNFKVSYKEYSASIVDSTLAETTDKTIDTAKAETYQVTVSNKDGKTVHSVKVIVGDEKPMMVNLAQDAKIIGTDNMTQSAKVFDGQKDQFLLSWNKDSSVIFELKTPGTAKHWRFFDDGKNDSVTLSVFKGDASNFETEKDKAENWVEITKDSRKNDDKVFSSPLEVDNAKYLKVTIKKEAKYIYFNELQILGYPGVVAKKTADDLRPTEADKSDDKSDKNDTEAK
0.0%: 1 h | 2 h | 4 h | 6 h | 24 h
